This note sets out measurements from patent publication US20260015420A1 (CENTESSA PHARMACEUTICALS UK, published 2026).

Assay [1] concerns the target T1, cynomolgus monkey CD47-Fc (cynomolgus monkey, UniProt Q08722 19-139 (human entry), limits assumed).
T1 construct: also called cCD47; cyno CD47-Fc; not shown: Fc part
T1 chain: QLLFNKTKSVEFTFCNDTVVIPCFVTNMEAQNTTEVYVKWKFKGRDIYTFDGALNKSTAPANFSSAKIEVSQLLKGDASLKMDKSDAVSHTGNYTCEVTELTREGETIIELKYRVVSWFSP
As to the kind of experiment: direct ELISA, coated cyno CD47-Fc, OD450. In general terms: In an ELISA, binding on a coated surface is turned into a signal by an enzyme label.

Assay [2] addresses T2, human CD47-Fc (human, UniProt Q08722 19-139).
T2 construct: also called hCD47; human CD47-Fc protein; not shown: Fc part
The assay is described as follows: direct ELISA, coated human CD47-Fc, OD450.

Assay [3] concerns the target T2, human CD47-Fc. The assay is described as follows: HTRF epitope competition; competitor Tb-labelled h5F9G4 IgG1 on biotinylated human CD47-Fc. (In general: In TR-FRET formats the signal depends on donor and acceptor labels being close together.)
Target sequence in this assay (Q08722 19-139 limits assumed): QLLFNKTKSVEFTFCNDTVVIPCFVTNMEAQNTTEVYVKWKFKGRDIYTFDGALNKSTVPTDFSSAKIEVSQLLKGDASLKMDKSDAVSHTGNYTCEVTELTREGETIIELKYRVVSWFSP

B1: A-H3, human IgG1null (antibody, V domains shown)
VH: EVQLVQSGAEVKKPGESLKISCKGSGYSFTNYNIHWVRQMPGKGLEWMGTIYPGNSDTSYNPSFQGQVTISADKSISTAYLQWSSLKASDTAMYYCARGGVRAMDYWGQGTLVTVSS
VL: DIVMTQSPLSLPVTPGEPASISCRSSQSLLHSKGNTYLGWYLQKPGQSPQLLIYKGSNRFSGVPDRFSGSGSGTDFTLKISRVEAEDVGVYYCMQASQVPYTFGQGTKLEIK
notes: IgG1null; also called Clone A-H3
As for B1, the binding result (in assay [1]; in the assay with human CD47-Fc [2]) was “binds” each time.

B2: VH1.12/VL1.8, human IgG1null (antibody, V domains shown)
VH: QVQLVQSGAEVKKPGASVKVSCKASGYTFTNYAMHWVRQAPGQRLEWMGTIYPGNDNTKYNQKFQGRVTITADTSASTAYMELSSLRSEDTAVYYCARGGFRAMDYWGQGTLVTVSS
VL: DIVMTQSPLSLPVTPGEPASISCRSSQSLLHSNAYNYLGWYLQKPGQSPQLLIYKGSNRFSGVPDRFSGSGSGTDFTLKISRVEAEDVGVYYCMQASHVPYTFGQGTKLEIK
notes: IgG1null; also called VH1.12/VL8
The molecule B2 returned a concentration for half-maximal inhibition (IC50) with human CD47-Fc [3] of 16.3 µg/mL.

B3: VH1.7/VL1.5, human IgG1null (antibody, V domains shown)
VH: QVQLVQSGAEVKKPGASVKVSCKASGYTFTNYNIHWVRQAPGQRLEWMGTIYPGNDDTSYSQKFQGRVTITADTSASTAYMELSSLRSEDTAVYYCARGGFRAMDYWGQGTLVTVSS
VL: DIVMTQSPLSLPVTPGEPASISCRSSQSLLHSNAYNYLGWYLQKPGQSPQLLIYKGSNRFSGVPDRFSGSGSGTDFTLKISRVEAEDVGVYYCFQASHVPYTFGQGTKLEIK
notes: VH assembled as for m35; IgG1null; also called Clone VH1.7/VL1.5
In the assay with human CD47-Fc [3], B3 yielded an IC50 of 9.53 µg/mL.

B4: VH1.7/VL1.4, human IgG1null (antibody, V domains shown)
VH: QVQLVQSGAEVKKPGASVKVSCKASGYTFTNYNIHWVRQAPGQRLEWMGTIYPGNDDTSYSQKFQGRVTITADTSASTAYMELSSLRSEDTAVYYCARGGFRAMDYWGQGTLVTVSS
VL: DIVMTQSPLSLPVTPGEPASISCRSSQSLLHSNAYNYLGWYLQKPGQSPQLLIYKGSNRFSGVPDRFSGSGSGTDFTLKISRVEAEDVGVYYCFQASQVPYTFGQGTKLEIK
notes: VH assembled as for m35; IgG1null
The molecule B4 displayed an IC50 with human CD47-Fc [3] of 22.6 µg/mL.

B5: VH1.1/VL1.6, human IgG1null (antibody, V domains shown)
VH: QVQLVQSGAEVKKPGASVKVSCKASGYTFTNYAMHWVRQAPGQRLEWMGTIYPGNDDTKYNQKFQGRVTITADTSASTAYMELSSLRSEDTAVYYCARGGYRAEDYWGQGTLVTVSS
VL: DIVMTQSPLSLPVTPGEPASISCRSSQSLLHSNANTYLGWYLQKPGQSPQLLIYKGSNRFSGVPDRFSGSGSGTDFTLKISRVEAEDVGVYYCFQASHVPYTFGQGTKLEIK
notes: cf. claim 50); IgG1null; also called Clone VH1.1/VL1.6
For B5, the IC50 in the assay with human CD47-Fc [3] is 6.96 µg/mL.

B6: D-C12, human IgG1null (antibody, V domains shown)
VH: EVQLVQSGAEVKKPGESLKISCKGSGYSFTNYNIHWVRQMPGKGLEWMGTIYPGNSDTRYNPKFQGQVTISADKSISTAYLQWSSLKASDTAMYYCARGGFRAMDYWGQGTLVTVSS
VL: DIVMTQSPLSLPVTPGEPASISCRSSQSLLHSNGNTYLGWYLQKPGQSPQLLIYKGSNRFSGVPDRFSGSGSGTDFTLKISRVEAEDVGVYYCMQGSHVPYTFGQGTKLEIK
notes: IgG1null; also called Clone D-C12
For the molecule B6, the binding result (in assay [1]; with human CD47-Fc [2]) was “binds” throughout.

B7: B-A6, human IgG1null (antibody, V domains shown)
VH: EVQLVQSGAEVKKPGESLKISCKGSGYSFTNYNIHWVRQMPGKGLEWMGTIYPGDSDTRYNQKFQGQVTISADKSISTAYLQWSSLKASDTAMYYCARGGIRAMDYWGQGTLVTVSS
VL: DIVMTQSPLSLPVTPGEPASISCRSSQSLLHSNGNTYLGWYLQKPGQSPQLLIYKGSNRFSGVPDRFSGSGSGTDFTLKISRVEAEDVGVYYCFQGSHVPYIFGQGTKLEIK
notes: IgG1null; also called Clone B-A6
As to B7, the binding result (in assay [1]; with human CD47-Fc [2]) was “binds” throughout.

B8: VH1.9/VL1.6, human IgG1null (antibody, V domains shown)
VH: QVQLVQSGAEVKKPGASVKVSCKASGYTFTNYAMHWVRQAPGQRLEWMGTIYPGNDDTKYSQKFQGRVTITADTSASTAYMELSSLRSEDTAVYYCARGGYRAEDYWGQGTLVTVSS
VL: DIVMTQSPLSLPVTPGEPASISCRSSQSLLHSNANTYLGWYLQKPGQSPQLLIYKGSNRFSGVPDRFSGSGSGTDFTLKISRVEAEDVGVYYCFQASHVPYTFGQGTKLEIK
notes: IgG1null
Molecule B8 displayed an IC50 with human CD47-Fc [3] of 11.1 µg/mL.

B9: E-D6, human IgG1null (antibody, V domains shown)
VH: EVQLVQSGAEVKKPGESLKISCKGSGYSFTNYNIHWVRQMPGKGLEWMGTIYPGDSDTSYNPKFQGQVTISADKSISTAYLQWSSLKASDTAMYYCARGGYRAEDYWGQGTLVTVSS
VL: DIVMTQSPLSLPVTPGEPASISCRSSQSLLHSNGNTYLGWYLQKPGQSPQLLIYKGSNRFSGVPDRFSGSGSGTDFTLKISRVEAEDVGVYYCMQGSHVPYTFGQGTKLEIK
notes: IgG1null; also called Clone E-D6
Turning to B9, the binding result (in assay [1]; with human CD47-Fc [2]) was “binds” throughout.

B10: B-D2, human IgG1null (antibody, V domains shown)
VH: EVQLVQSGAEVKKPGESLKISCKGSGYSFTNYNIHWVRQMPGKGLEWMGTIYPGNSDTRYNPSFQGQVTISADKSISTAYLQWSSLKASDTAMYYCARGGERAMDYWGQGTLVTVSS
VL: DIVMTQSPLSLPVTPGEPASISCRSSQSLLHSNGNTYLGWYLQKPGQSPQLLIYKGSNRFSGVPDRFSGSGSGTDFTLKISRVEAEDVGVYYCFQASQVPYTFGQGTKLEIK
notes: IgG1null; also called Clone B-D2
B10: the binding result (in assay [1]; with human CD47-Fc [2]) was “binds” each time.

B11: VH1.7/VL1.6, human IgG1null (antibody, V domains shown)
VH: QVQLVQSGAEVKKPGASVKVSCKASGYTFTNYNIHWVRQAPGQRLEWMGTIYPGNDDTSYSQKFQGRVTITADTSASTAYMELSSLRSEDTAVYYCARGGFRAMDYWGQGTLVTVSS
VL: DIVMTQSPLSLPVTPGEPASISCRSSQSLLHSNANTYLGWYLQKPGQSPQLLIYKGSNRFSGVPDRFSGSGSGTDFTLKISRVEAEDVGVYYCFQASHVPYTFGQGTKLEIK
notes: VH assembled as for m35; IgG1null; also called Clone VH1.7/VL1.6
B11: the IC50 with human CD47-Fc [3] is 4.64 µg/mL.

B12: VH1.6/VL1.6, human IgG1null (antibody, V domains shown)
VH: QVQLVQSGAEVKKPGASVKVSCKASGYTFTNYAMHWVRQAPGQRLEWMGTIYPGNDDTSYSQKFQGRVTITADTSASTAYMELSSLRSEDTAVYYCARGGYRAEDYWGQGTLVTVSS
VL: DIVMTQSPLSLPVTPGEPASISCRSSQSLLHSNANTYLGWYLQKPGQSPQLLIYKGSNRFSGVPDRFSGSGSGTDFTLKISRVEAEDVGVYYCFQASHVPYTFGQGTKLEIK
notes: as for B4
In the assay with human CD47-Fc [3], B12 displayed an IC50 of 14 µg/mL.

B13: C-D5, human IgG1null (antibody, V domains shown)
VH: EVQLVQSGAEVKKPGESLKISCKGSGYSFTNYNIHWVRQMPGKGLEWMGTIYPGDSDTRYNPKFQGQVTISADKSISTAYLQWSSLKASDTAMYYCARGGIRAMDYWGQGTLVTVSS
VL: DIVMTQSPLSLPVTPGEPASISCRSSQSLLHSNYNTYLGWYLQKPGQSPQLLIYKGSNRFSGVPDRFSGSGSGTDFTLKISRVEAEDVGVYYCFQGSQTPYTFGQGTKLEIK
notes: IgG1null; also called Clone C-D5
As for B13, the binding result (in assay [1]; with human CD47-Fc [2]) was “binds” each time.

B14: E-C5, human IgG1null (antibody, V domains shown)
VH: EVQLVQSGAEVKKPGESLKISCKGSGYSFTNYNIHWVRQMPGKGLEWMGTIYPGDSDTSYNPKFQGQVTISADKSISTAYLQWSSLKASDTAMYYCARGGYRAQDYWGQGTLVTVSS
VL: DIVMTQSPLSLPVTPGEPASISCRSSQSLLHSNGNTYLGWYLQKPGQSPQLLIYKGSNRFSGVPDRFSGSGSGTDFTLKISRVEAEDVGVYYCMQASHVPYTFGQGTKLEIK
notes: IgG1null; also called Clone E-C5
For the molecule B14, the binding result (in assay [1]; in the assay with human CD47-Fc [2]) was “binds” in each case.

One may read the IC50 as the concentration needed to halve the response being measured.
